Assay results from US20200123221A1 (published 2020).
Blank lines part the entries; values can stand above or below the binder they belong to.

What was measured:
[1] = molecular target: T1, PRAME (PRAME-004) peptide on HLA-A*02:01 (human); test: IFN-gamma release; RNA-electroporated CD8+ T cells; T2 cells loaded with 10 µM to 10 pM peptide (FIG. 17); full-length, on cells
T1 peptide: SLLQHLIGL

[2] = molecular target: T1, PRAME (PRAME-004) peptide on HLA-A*02:01; test: IFN-gamma release; RNA-electroporated CD8+ T cells; T2 cells loaded with 10 µM to 10 pM peptide (FIG. 18); full-length, on cells
[3] = molecular target: T1, PRAME (PRAME-004) peptide on HLA-A*02:01; test: multimer staining

EC50 of peptide [1]: ~1000 nM
B1: R16P1E8 (TCR, V domains shown)
Valpha: QKEVEQDPGPLSVPEGAIVSLNCTYSNSAFQYFMWYRQYSRKGPELLMYTYSSGNKEDGRFTAQVDKSSKYISLFIRDSQPSDSATYLCAMSEAAGNKLTFGGGTRVLVKP
Vbeta: EAGVAQSPRYKIIEKRQSVAFWCNPISGHATLYWYQQILGQGPKLLIQFQNNGVVDDSQLPKDRFSAERLKGVDSTLKIQPAKLEDSAVYLCASSYTNQGEAFFGQGTRLTVV

EC50 of peptide [2]: 1.83 nM
B2: R17P1D7 (TCR, V domains shown)
Valpha: AQTVTQSQPEMSVQEAETVTLSCTYDTSESDYYLFWYKQPPSRQMILVIRQEAYKQQNATENRFSVNFQKAAKSFSLKISDSQLGDAAMYFCAYRWAQGGSEKLVFGKGTKLTVNP
Vbeta: EADIYQTPRYLVIGTGKKITLECSQTMGHDKMYWYQQDPGMELHLIHYSYGVNSTEKGDLSSESTVSRIRTEHFPLTLESARPSHTSQYLCATELWSSGGTGELFFGEGSRLTVL

binding result [3]: recognises
B3: R17P1A9 (TCR, V domains shown)
Valpha: QKEVEQNSGPLSVPEGAIASLNCTYSDRGSQSFFWYRQYSGKSPELIMSIYSNGDKEDGRFTAQLNKASQYVSLLIRDSQPSDSATYLCAVLNQAGTALIFGKGTTLSVSS
Vbeta: DSGVTQTPKHLITATGQRVTLRCSPRSGDLSVYWYQQSLDQGLQFLIQYYNGEERAKGNILERFSAQQFPDLHSELNLSSLELGDSALYFCASSAETGPWLGNEQFFGPGTRLTVL
